Experimental data reported in US20110045007A1.

Columns and labels:
2F8-HG F273A (human) = assay: non-covalent nano-electrospray mass spectrometry, 1 µM; self-association
2F8-HG F273L (human) = assay: as above

Row | percentage molecules present as monomers (2F8-HG F273A (human)) | percentage molecules present as monomers (2F8-HG F273L (human)) | Binder
1 | > 80% |  | 2F8-HG F273A (antibody, part only; not given: 2F8 variable domains, not shown: a dimerising Fc or GST) heavy, part: ASTKGPSVFPLAPCSRSTSESTAALGCLVKDYFPEPVTVSWNSGALTSGVHTFPAVLQSSGLYSLSSVVTVPSSSLGTKTYTCNVDHKPSNTKVDKRVAPEFLGGPSVFLFPPKPKDTLMISRTPEVTCVVVDVSQEDPEVQFNWYVDGVEVHNAKTKPREEQFNSTYRVVSVLTVLHQDWLNGKEYKCKVSNKGLPSSIEKTISKAKGQPREPQVYTLPPSQEEMTKNQVSLTCLVKGFYPSDIAVEWESNGQPENNYKTTPPVLDSDGSFALYSRLTVDKSRWQEGNVFSCSVMHEALHNHYTQKSLSLSLGK
2 |  | > 80% | 2F8-HG F273L (antibody, part only; not given: 2F8 variable domains, not shown: a dimerising Fc or GST) heavy, part: ASTKGPSVFPLAPCSRSTSESTAALGCLVKDYFPEPVTVSWNSGALTSGVHTFPAVLQSSGLYSLSSVVTVPSSSLGTKTYTCNVDHKPSNTKVDKRVAPEFLGGPSVFLFPPKPKDTLMISRTPEVTCVVVDVSQEDPEVQFNWYVDGVEVHNAKTKPREEQFNSTYRVVSVLTVLHQDWLNGKEYKCKVSNKGLPSSIEKTISKAKGQPREPQVYTLPPSQEEMTKNQVSLTCLVKGFYPSDIAVEWESNGQPENNYKTTPPVLDSDGSFLLYSRLTVDKSRWQEGNVFSCSVMHEALHNHYTQKSLSLSLGK
